Target: DDX3-DQAD (human) (UniProt O00571)

B1: TCTP (translationally controlled tumor protein) (natural protein)
chain: MIIYRDLISHDEMFSDIYKIREIADGLCLEVEGKMVSRTEGNIDDSLIGGNASAEGPEGEGTESTVITGVDIVMNHHLQETSFTKEAYKKYIKDYMKSIKGKLEEQRPERVKPFMTGAAEQIKHILANFKNYQFFIGENMNPDGMVALLDYREDGVTPYMIFFKDGLEMEKC
Q: How did the increase of the let-7c-5p signal bound to DDX-DQAD on adding TCTP (500 nM TCTP, 300 nM DDX3-DQAD, 50 nM biotinylated let-7c-5p, non-denaturing gel), in the presence of AMP-PNP turn out when B1 was run?
A: 200%

Q: What about the increase of the let-7c-5p signal bound to DDX-DQAD on adding TCTP (500 nM TCTP, 300 nM DDX3-DQAD, 50 nM biotinylated let-7c-5p, non-denaturing gel), in the presence of ATP of the same binder?
A: 50%

Source: publication PMC11014985, “TCTP regulates genotoxic stress and tumorigenicity via intercellular vesicular signaling” (EMBO Reports, 2024)
